{"source": "paper PMC7320910", "about": "(Nature microbiology, 2020)", "proteins": {"B1": {"name": "FliF (flagellar MS-ring protein) from Salmonella enterica serovar Typhimurium (natural protein)", "chain": "MSATASTATQPKPLEWLNRLRANPRIPLIVAGSAAVAIVVAMVLWAKTPDYRTLFSNLSDQDGGAIVAQLTQMNIPYRFANGSGAIEVPADKVHELRLRLAQQGLPKGGAVGFELLDQEKFGISQFSEQVNYQRALEGELARTIETLGPVKSARVHLAMPKPSLFVREQKSPSASVTVTLEPGRALDEGQISAVVHLVSSAVAGLPPGNVTLVDQSGHLLTQSNTSGRDLNDAQLKFANDVESRIQRRIEAILSPIVGNGNVHAQVTAQLDFANKEQTEEHYSPNGDASKATLRSRQLNISEQVGAGYPGGVPGALSNQPAPPNEAPIATPPTNQQNAQNTPQTSTSTNSNSAGPRSTQRNETSNYEVDRTIRHTKMNVGDIERLSVAVVVNYKTLADGKPLPLTADQMKQIEDLTREAMGFSDKRGDTLNVVNSPFSAVDNTGGELPFWQQQSFIDQLLAAGRWLLVLVVAWILWRKAVRPQLTRRVEEAKAAQEQAQVRQETEEAVEVRLSKDEQLQQRRANQRLGAEVMSQRIREMSDNDPRVVALVIRQWMSNDHE"}}, "target": "the molecule itself", "assay": "cryo-EM structure", "note": "Values joined by “and” are separate entries in the source; they are usually repeats but may differ in a detail not shown here. Equal values may be shown once."}
{"protein": "B1", "values": [{"measurement": "stoichiometry N", "value": "33 and 34 and 32 and 35"}]}
